Test [1] deals with T1, HCV ORFs (Gal4-DB fusions) (Hepatitis C virus genotype 1b, UniProt Q9WMX2).
T1 construct: expressed in transfected cells; host or cells: Saccharomyces cerevisiae MAV203 (IMAP1) / AH109 (IMAP2)
The test is classed as binding, HCV genotype 1b, isolate con1. The following applies: human protein as prey.

Test [2] relates to HCV ORFs (Gal4-DB fusions). The test is classed as binding, HCV genotype 1b, isolate con1. As to conditions: human protein listed by gene symbol; the value names the HCV protein it interacts with.
The target in a further test is T2, HCV proteins (Hepatitis C virus genotype 1b, UniProt Q9WMX2).
T2 construct: expressed in transfected cells
Kind of test: Validation by Y2H pairwise matrices.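 Note: yeast two-hybrid pairwise tests of interactions first found in Y2H screens of HCV bait proteins against human cDNA libraries.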 The class given is binding.

Where [3] appears, read: validation of interaction with HCV protein NS3.

Where two headings read alike, the source gives them in different places.
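Throughout, for IMAP Y2H IMAP1 (number of IST): yeast two-hybrid screens using HCV genotype 1b proteins fused to Gal4-DB as baits against prey cDNA libraries from human spleen and foetal brain, IMAP1 via transformation and IMAP2 via mating.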
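Throughout, for Interaction with viral protein: yeast two-hybrid screens using HCV genotype 1b proteins fused to Gal4-DB as baits against prey cDNA libraries from human spleen and foetal brain, IMAP1 via transformation and IMAP2 via mating.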

B1: ANKRD28 (protein, UniProt O15084 1-1053, looked up)
Serine/threonine-protein …: MAFLKLRDQPSLVQAIFNGDPDEVRALIFKKEDVNFQDNEKRTPLHAAAYLGDAEIIELLILSGARVNAKDSKWLTPLHRAVASCSEEAVQVLLKHSADVNARDKNWQTPLHIAAANKAVKCAEALVPLLSNVNVSDRAGRTALHHAAFSGHGEMVKLLLSRGANINAFDKKDRRAIHWAAYMGHIEVVKLLVSHGAEVTCKDKKSYTPLHAAASSGMISVVKYLLDLGVDMNEPNAYGNTPLHVACYNGQDVVVNELIDCGAIVNQKNEKGFTPLHFAAASTHGALCLELLVGNGADVNMKSKDGKTPLHMTALHGRFSRSQTIIQSGAVIDCEDKNGNTPLHIAARYGHELLINTLITSGADTAKRGIHGMFPLHLAALSGFSDCCRKLLSSGFDIDTPDDFGRTCLHAAAAGGNLECLNLLLNTGADFNKKDKFGRSPLHYAAANCNYQCLFALVGSGASVNDLDERGCTPLHYAATSDTDGKCLEYLLRNDANPGIRDKQGYNAVHYSAAYGHRLCLQLIASETPLDVLMETSGTDMLSDSDNRATISPLHLAAYHGHHQALEVLVQSLLDLDVRNSSGRTPLDLAAFKGHVECVDVLINQGASILVKDYILKRTPIHAAATNGHSECLRLLIGNAEPQNAVDIQDGNGQTPLMLSVLNGHTDCVYSLLNKGANVDAKDKWGRTALHRGAVTGHEECVDALLQHGAKCLLRDSRGRTPIHLSAACGHIGVLGALLQSAASMDANPATADNHGYTALHWACYNGHETCVELLLEQEVFQKTEGNAFSPLHCAVINDNEGAAEMLIDTLGASIVNATDSKGRTPLHAAAFTDHVECLQLLLSHNAQVNSVDSTGKTPLMMAAENGQTNTVEMLVSSASAELTLQDNSKNTALHLACSKGHETSALLILEKITDRNLINATNAALQTPLHVAARNGLTMVVQELLGKGASVLAVDENGYTPALACAPNKDVADCLALILATMMPVSSSSPLSSLTFNAINRYTNTSKTVSFEALPIMRNEPSSYCSFNNIGGEQEYLYTDVDELNDSDSETY
As to B1, in test [1] (HCV protein NS3 as bait), the “IMAP Y2H IMAP1 (number of IST)” value was 1. In addition, the “Interaction with viral protein” value in test [2] is “NS3”. Also, in the test with HCV proteins (setting [3]), the Y2H matrices entry is recorded as “+”.

B2: ZZZ3 (protein, UniProt Q8IYH5 1-903, looked up)
ZZ-type zinc …: MAASRSTRVTRSTVGLNGLDESFCGRTLRNRSIAHPEEISSNSQVRSRSPKKRPEPVPIQKGNNNGRTTDLKQQSTRESWVSPRKRGLSSSEKDNIERQAIENCERRQTEPVSPVLKRIKRCLRSEAPNSSEEDSPIKSDKESVEQRSTVVDNDADFQGTKRACRCLILDDCEKREIKKVNVSEEGPLNSAVVEEITGYLAVNGVDDSDSAVINCDDCQPDGNTKQNSIGSYVLQEKSVAENGDTDTQTSMFLDSRKEDSYIDHKVPCTDSQVQVKLEDHKIVTACLPVEHVNQLTTEPATGPFSETQSSLRDSEEEVDVVGDSSASKEQCKENTNNELDTSLESMPASGEPEPSPVLDCVSAQMMSLSEPQEHRYTLRTSPRRAAPTRGSPTKNSSPYRENGQFEENNLSPNETNATVSDNVSQSPTNPGEISQNEKGICCDSQNNGSEGVSKPPSEARLNIGHLPSAKESASQHITEEEDDDPDVYYFESDHVALKHNKDYQRLLQTIAVLEAQRSQAVQDLESLGRHQREALKNPIGFVEKLQKKADIGLPYPQRVVQLPEIVWDQYTHSLGNFEREFKNRKRHTRRVKLVFDKVGLPARPKSPLDPKKDGESLSYSMLPLSDGPEGSSSRPQMIRGRLCDDTKPETFNQLWTVEEQKKLEQLLIKYPPEEVESRRWQKIADELGNRTAKQVASRVQKYFIKLTKAGIPVPGRTPNLYIYSKKSSTSRRQHPLNKHLFKPSTFMTSHEPPVYMDEDDDRSCFHSHMNTAVEDASDDESIPIMYRNLPEYKELLQFKKLKKQKLQQMQAESGFVQHVGFKCDNCGIEPIQGVRWHCQDCPPEMSLDFCDSCSDCLHETDIHKEDHQLEPIYRSETFLDRDYCVSQGTSYNYLDPNYFPANR
In the case of B2, the “IMAP Y2H IMAP1 (number of IST)” value in test [1] (HCV protein NS3 as bait) is on record as 1. Moreover, in test [2], the “Interaction with viral protein” value is on record as “NS3”. Further, the Y2H matrices entry with HCV proteins (setting [3]) is “+”.

B3: AEBP1 (protein, UniProt Q8IUX7 26-1158, looked up)
Adipocyte enhancer-binding …: QTVLTDDEIEEFLEGFLSELEPEPREDDVEAPPPPEPTPRVRKAQAGGKPGKRPGTAAEVPPEKTKDKGKKGKKDKGPKVPKESLEGSPRPPKKGKEKPPKATKKPKEKPPKATKKPKEKPPKATKKPKEKPPKATKKPPSGKRPPILAPSETLEWPLPPPPSPGPEELPQEGGAPLSNNWQNPGEETHVEAREHQPEPEEETEQPTLDYNDQIEREDYEDFEYIRRQKQPRPPPSRRRRPERVWPEPPEEKAPAPAPEERIEPPVKPLLPPLPPDYGDGYVIPNYDDMDYYFGPPPPQKPDAERQTDEEKEELKKPKKEDSSPKEETDKWAVEKGKDHKEPRKGEELEEEWTPTEKVKCPPIGMESHRIEDNQIRASSMLRHGLGAQRGRLNMQTGATEDDYYDGAWCAEDDARTQWIEVDTRRTTRFTGVITQGRDSSIHDDFVTTFFVGFSNDSQTWVMYTNGYEEMTFHGNVDKDTPVLSELPEPVVARFIRIYPLTWNGSLCMRLEVLGCSVAPVYSYYAQNEVVATDDLDFRHHSYKDMRQLMKVVNEECPTITRTYSLGKSSRGLKIYAMEISDNPGEHELGEPEFRYTAGIHGNEVLGRELLLLLMQYLCREYRDGNPRVRSLVQDTRIHLVPSLNPDGYEVAAQMGSEFGNWALGLWTEEGFDIFEDFPDLNSVLWGAEERKWVPYRVPNNNLPIPERYLSPDATVSTEVRAIIAWMEKNPFVLGANLNGGERLVSYPYDMARTPTQEQLLAAAMAAARGEDEDEVSEAQETPDHAIFRWLAISFASAHLTLTEPYRGGCQAQDYTGGMGIVNGAKWNPRTGTINDFSYLHTNCLELSFYLGCDKFPHESELPREWENNKEALLTFMEQVHRGIKGVVTDEQGIPIANATISVSGINHGVKTASGGDYWRILNPGEYRVTAHAEGYTPSAKTCNVDYDIGATQCNFILARSNWKRIREIMAMNGNRPIPHIDPSRPMTPQQRRLQQRRLQHRLRLRAQMRLRRLNATTTLGPHTVPPTLPPAPATTLSTTIEPWGLIPPTTAGWEESETETYTEVVTEFGTEVEPEFGTKVEPEFETQLEPEFETQLEPEFEEEEEEEKEEEIATGQAFPFTTVETYTVNFGDF
With B3, the “IMAP Y2H IMAP1 (number of IST)” value in test [1] (HCV protein NS3 as bait) came out at 2. The “Interaction with viral protein” value in test [2] is “NS3”. Besides, the Y2H matrices result with HCV proteins (setting [3]) was “+”.

B4: POU3F2 (protein, UniProt P20265 1-443, looked up)
POU domain, class 3, …: MATAASNHYSLLTSSASIVHAEPPGGMQQGAGGYREAQSLVQGDYGALQSNGHPLSHAHQWITALSHGGGGGGGGGGGGGGGGGGGGGDGSPWSTSPLGQPDIKPSVVVQQGGRGDELHGPGALQQQHQQQQQQQQQQQQQQQQQQQQQRPPHLVHHAANHHPGPGAWRSAAAAAHLPPSMGASNGGLLYSQPSFTVNGMLGAGGQPAGLHHHGLRDAHDEPHHADHHPHPHSHPHQQPPPPPPPQGPPGHPGAHHDPHSDEDTPTSDDLEQFAKQFKQRRIKLGFTQADVGLALGTLYGNVFSQTTICRFEALQLSFKNMCKLKPLLNKWLEEADSSSGSPTSIDKIAAQGRKRKKRTSIEVSVKGALESHFLKCPKPSAQEITSLADSLQLEKEVVRVWFCNRRQKEKRMTPPGGTLPGAEDVYGGSRDTPPHHGVQTPVQ
For the molecule B4, in test [1] (HCV protein NS2 as bait), the “IMAP Y2H IMAP1 (number of IST)” value was 1. For the same molecule, in test [2], the “Interaction with viral protein” value is listed as “NS2”. Besides, the Y2H matrices entry in the test with HCV proteins (validation of interaction with HCV protein NS2) is reported as “+”.

B5: ELAC2 (protein, UniProt Q9BQ52 17-826, looked up)
Zinc phosphodiesterase ELAC …: SQGRTISQAPARRERPRKDPLRHLRTREKRGPSGCSGGPNTVYLQVVAAGSRDSGAALYVFSEFNRYLFNCGEGVQRLMQEHKLKVARLDNIFLTRMHWSNVGGLSGMILTLKETGLPKCVLSGPPQLEKYLEAIKIFSGPLKGIELAVRPHSAPEYEDETMTVYQIPIHSEQRRGKHQPWQSPERPLSRLSPERSSDSESNENEPHLPHGVSQRRGVRDSSLVVAFICKLHLKRGNFLVLKAKEMGLPVGTAAIAPIIAAVKDGKSITHEGREILAEELCTPPDPGAAFVVVECPDESFIQPICENATFQRYQGKADAPVALVVHMAPASVLVDSRYQQWMERFGPDTQHLVLNENCASVHNLRSHKIQTQLNLIHPDIFPLLTSFRCKKEGPTLSVPMVQGECLLKYQLRPRREWQRDAIITCNPEEFIVEALQLPNFQQSVQEYRRSAQDGPAPAEKRSQYPEIIFLGTGSAIPMKIRNVSATLVNISPDTSLLLDCGEGTFGQLCRHYGDQVDRVLGTLAAVFVSHLHADHHTGLPSILLQRERALASLGKPLHPLLVVAPNQLKAWLQQYHNQCQEVLHHISMIPAKCLQEGAEISSPAVERLISSLLRTCDLEEFQTCLVRHCKHAFGCALVHTSGWKVVYSGDTMPCEALVRMGKDATLLIHEATLEDGLEEEAVEKTHSTTSQAISVGMRMNAEFIMLNHFSQRYAKVPLFSPNFSEKVGVAFDHMKVCFGDFPTMPKLIPPLKALFAGDIEEMEERREKRELRQVRAALLSRELAGGLEDGEPQQKRAHTEEPQAKKVRAQ
In the case of B5, the “IMAP Y2H IMAP1 (number of IST)” value in test [1] (HCV protein NS4A as bait) is on record as 1. The “Interaction with viral protein” value in test [2] is on record as “NS4A”. Also, the Y2H matrices result with HCV proteins (validation of interaction with HCV protein NS4A) was “+”.

B6: ACTN1 (protein, UniProt P12814 1-892, looked up)
Alpha-actinin-1: MDHYDSQQTNDYMQPEEDWDRDLLLDPAWEKQQRKTFTAWCNSHLRKAGTQIENIEEDFRDGLKLMLLLEVISGERLAKPERGKMRVHKISNVNKALDFIASKGVKLVSIGAEEIVDGNVKMTLGMIWTIILRFAIQDISVEETSAKEGLLLWCQRKTAPYKNVNIQNFHISWKDGLGFCALIHRHRPELIDYGKLRKDDPLTNLNTAFDVAEKYLDIPKMLDAEDIVGTARPDEKAIMTYVSSFYHAFSGAQKAETAANRICKVLAVNQENEQLMEDYEKLASDLLEWIRRTIPWLENRVPENTMHAMQQKLEDFRDYRRLHKPPKVQEKCQLEINFNTLQTKLRLSNRPAFMPSEGRMVSDINNAWGCLEQVEKGYEEWLLNEIRRLERLDHLAEKFRQKASIHEAWTDGKEAMLRQKDYETATLSEIKALLKKHEAFESDLAAHQDRVEQIAAIAQELNELDYYDSPSVNARCQKICDQWDNLGALTQKRREALERTEKLLETIDQLYLEYAKRAAPFNNWMEGAMEDLQDTFIVHTIEEIQGLTTAHEQFKATLPDADKERLAILGIHNEVSKIVQTYHVNMAGTNPYTTITPQEINGKWDHVRQLVPRRDQALTEEHARQQHNERLRKQFGAQANVIGPWIQTKMEEIGRISIEMHGTLEDQLSHLRQYEKSIVNYKPKIDQLEGDHQLIQEALIFDNKHTNYTMEHIRVGWEQLLTTIARTINEVENQILTRDAKGISQEQMNEFRASFNHFDRDHSGTLGPEEFKACLISLGYDIGNDPQGEAEFARIMSIVDPNRLGVVTFQAFIDFMSRETADTDTADQVMASFKILAGDKNYITMDELRRELPPDQAEYCIARMAPYTGPDSVPGALDYMSFSTALYGESDL
As for B6, the “IMAP Y2H IMAP1 (number of IST)” value in test [1] (HCV protein NS3 as bait) is recorded as 9. Besides, the “Interaction with viral protein” value in test [2] is listed as “NS3”. Moreover, the Y2H matrices entry with HCV proteins (setting [3]) was “+”.

Source of the values: patent publication US20110091994A1, “Methods for Screening Compounds for Treating and/or Preventing an Hepatitis C Virus Infection” (priority 2008, published 2011).
